Test [1] concerns the target T1, Recombinant human VEGF165 (human, UniProt P15692-4, strain). The test is described as follows: cell-based or functional assay.
Target sequence in this assay (P15692 whole entry, looked up, change not shown, the tested form may be a part): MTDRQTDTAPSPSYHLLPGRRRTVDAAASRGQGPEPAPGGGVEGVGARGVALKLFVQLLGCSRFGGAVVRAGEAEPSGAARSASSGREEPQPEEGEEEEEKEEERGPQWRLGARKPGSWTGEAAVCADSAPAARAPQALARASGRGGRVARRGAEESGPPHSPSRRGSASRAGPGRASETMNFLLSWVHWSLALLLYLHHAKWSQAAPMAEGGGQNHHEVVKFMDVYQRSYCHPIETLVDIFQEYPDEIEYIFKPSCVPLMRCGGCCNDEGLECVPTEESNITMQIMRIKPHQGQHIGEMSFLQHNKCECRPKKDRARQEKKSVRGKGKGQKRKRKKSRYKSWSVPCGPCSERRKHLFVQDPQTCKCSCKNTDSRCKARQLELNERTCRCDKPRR
The target in test [2] is T2, rabbit IgG Fc-hVEGF (human VEGF165) fusion protein, wild type (human, UniProt P15692-4).
T2 construct: also called Fc-VEGF; VEGF wild type; source: HEK-293E cells, transient transfection, cleared culture supernatant; not shown: Fc (rabbit IgG), N-terminal, kept
The test is described as follows: ELISA; VEGF capture ELISA: Fc-VEGF supernatants captured on coated goat anti-rabbit IgG (H+L); hEBV321 at various concentrations, 1 hr at 37°C; detected by anti-human IgG alkaline phosphatase. To be noted: one partner purified. In general terms: ELISA stands for enzyme-linked immunosorbent assay.

Test [3] deals with T1, Recombinant human VEGF165. In words: SPR; BIAcore 3000; antibodies immobilised on CM5 chips by amine coupling (about 600 RU); VEGF165 (R&D Systems) injected at 0.2 to 50 nM, 35 µl/min, 25°C, HBS-P (10 mM HEPES pH 7.4, 150 mM NaCl, 0.005% P20); 1:1 binding model, global fit. The settings on record: both partners purified. In general terms: Surface plasmon resonance follows binding to a sensor surface in real time, without labels.

The target in test [4] is T1, Recombinant human VEGF165. The description is as above. To be noted: both partners purified. This is another data set of the same source.
The target in test [5] is T1, Recombinant human VEGF165. In words: ELISA; VEGF/VEGFR-2 interaction ELISA: 5 µg/ml Fc-VEGFR-2 (ECD) coated; antibody pre-incubated 1 hour with recombinant human VEGF (0.5 µg/ml final) before transfer to the plate; bound VEGF detected by a mouse anti-VEGF165 monoclonal antibody; triplicates. The settings on record: both partners purified.
The target of test [6] is T1, Recombinant human VEGF165. In words: ELISA; direct competition ELISA: human VEGF-A165 coated (0.05 µg/ml); reference antibody (0.04 µg/ml) mixed with increasing concentration of competitor, 1 hr at room temperature; bound reference antibody detected by anti-rabbit IgG Fc secondary antibody, chemiluminescence. The settings on record: both partners purified.
Target sequence in this assay (P15692 whole entry, looked up, change not shown, the tested form may be a part): as above
The target in test [7] is T1, Recombinant human VEGF165. In words: ELISA; VEGF/VEGFR-2 interaction ELISA: 5 µg/ml Fc-VEGFR-2 (ECD) coated; antibody pre-incubated 1 hour with recombinant human VEGF (0.5 µg/ml final) before transfer to the plate; bound VEGF detected by a mouse anti-VEGF165 monoclonal antibody; triplicates. To be noted: both partners purified. This is another data set of the same source.

For test [8], the target named is T1, Recombinant human VEGF165. In words: ELISA; antigen binding ELISA with the antigen coated on a 96-well plate; paired H and L chains of the 15 antibodies; grades against background reading.
Target sequence in this assay (P15692 whole entry, looked up, change not shown, the tested form may be a part): as above

T2 sequence (P15692 other isoform, or with tags, fused parts or gaps): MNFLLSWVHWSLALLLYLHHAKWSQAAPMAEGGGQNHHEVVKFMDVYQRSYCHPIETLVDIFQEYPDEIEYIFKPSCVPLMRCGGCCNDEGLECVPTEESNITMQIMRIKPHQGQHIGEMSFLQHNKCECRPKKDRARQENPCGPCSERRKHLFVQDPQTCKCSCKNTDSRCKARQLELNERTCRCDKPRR

B1: humanized EBV321 (antibody, V domains shown)
VH: EVQLVESGGGLVKPGGSLRLSCAASGFSFSNNDVMCWVRQAPGKGLEWIGCIMTTDVVTEYANWAKSRFTVSRDSAKNSVYLQMNSLRAEDTAVYFCARDSVGSPLMSFDLWGPGTLVTVSS
VL: DIQMTQSPSSLSASVGDRVTINCQASQSIYNNNELSWYQQKPGKPPKLLIYRASTLASGVPSRFSGSGSGTDFTLTISSLQPEDVATYYCGGYKSYSNDGNGFGGGTKVEIK
notes: also called hEBV321; humanized anti-VEGF RabMAb; source: 293-6E cells, L and H chain plasmids co-transfected, purified (protein A)
In general, Kd refers to the equilibrium constant for the complex coming apart. In general, koff refers to the rate constant with which the complex falls apart. Usually kon stands for the second-order rate constant of association. Broadly, the IC50 is the midpoint of a concentration-inhibition curve. For B1, the “IC50 of inhibition of VEGF-stimulated HUVEC proliferation” value in test [1] turned out to be 0.008 nM. The binding result in test [2] was “binds”. Moreover, the Kd in test [3] stood at 0.0119 nM. In test [4], the Kd was determined as 0.0115 nM, the koff came out at 1.88e-05 s⁻¹ and the kon was 1.63e+06 M⁻¹ s⁻¹. Moreover, the IC50 in test [5] turned out to be 3.2 nM. Also, in test [6], the “inhibition of EBV321 binding to VEGF at 5 fold excess” value came to 50%.

B2: anti-VEGF RabMAb EBV321 (antibody, V domains shown)
VH: QSLEESGGDLVKPGASLTLSCTASGFSFSNNDVMCWVRQAPGKGLEWIGCIMTTDVVTEYANWAKSRFTVSKTSSSTVTLQLTSLTVADTATYFCARDSVGSPLMSFDLWGPGTLVTVSS
VL: LVMTQTPASVSAAVGGTVTINCQASQSVYGNNELSWYQQKPGQPPKLLIYRASTLASGVPSRFSGSGSGTQFTLTISGVQCADAATYYCGGYKSYSNDGNGFGGGTEVVVK
notes: also called parental EBV321; source: 293-6E cells, L and H chain plasmids co-transfected, purified (protein A)
Consider B2, for which, in test [1], the “IC50 of inhibition of VEGF-stimulated HUVEC proliferation” value is 0.039 nM. Further, in test [4], the Kd came out at 0.419 nM, the koff is 0.00119 s⁻¹ and the kon is 2.85e+06 M⁻¹ s⁻¹. Moreover, the IC50 in test [5] amounted to 4.1 nM. The IC50 in test [7] was determined as 0.56 nM.

B3: heavy chain of EBV321 paired with light chain of EBV302 (antibody, V domains shown)
VH: QSLEESGGDLVKPGASLTLSCTASGFSFSNNDVMCWVRQAPGKGLEWIGCIMTTDVVTEYANWAKSRFTVSKTSSSTVTLQLTSLTVADTATYFCARDSVGSPLMSFDLWGPGTLVTVSS
VL: LVMTQTPASVSAAVGGTVIINCQASQNLYNNNELSWYQQKPGQPPKLLIYWASTLASGVPSRFKGSGSGTQFTLTISGVQCADAATYYCAGYKSYSNGGNGFGGGTEVVVK
Take B3: the binding result in test [8] was “binds”.

B4: heavy chain of EBV320 paired with light chain of EBV307 (antibody, V domains shown)
VH: QSLEESGGDLVKPGASLTLTCTASGFSFSNNAVMCWVRQAPGKGLEWIGCIMTTDVVTEYANWAKSRFTVSKTSSTTVTLQMTSLTVADTATYFCARDSVGSPLMSFDLWGPGTLVTVSS
VL: LVMTQTPASVSAAVGGTVTINCQASQSVYGNNELSWYQQKPGQRPKLLIYRASTLASGVPSRFSGSGSGTQFTLTISGVQCFDAATYYCSGYKSYYNDGSGFGGGTEVVVK
notes: also called 320H/307L
As for B4, in test [8], the binding result was “binds”.

B5: heavy chain of EBV302 paired with light chain of EBV307 (antibody, V domains shown)
VH: QSLEESGGDLVKPGASLTLTCTASGFSFSNNAVMCWVRQAPGKGLEWIGCIMTTDVVTEYANWAKSRFTVSKTSSTTVTLQMTSLTVADTATYFCARDSVGSPLMSFDLWGPGTLVTVSS
VL: LVMTQTPASVSAAVGGTVTINCQASQSVYGNNELSWYQQKPGQRPKLLIYRASTLASGVPSRFSGSGSGTQFTLTISGVQCFDAATYYCSGYKSYYNDGSGFGGGTEVVVK
notes: also called 302H/307L
As for B5, the binding result in test [8] was “binds”.

B6: heavy chain of EBV307 paired with light chain of EBV302 (antibody, V domains shown)
VH: QSVEESGGGLVKPGGTLTLTCTVSGFSFSNNDVMCWVRQAPGKGLEWIGCIMTTDVVTAYANWAKSRFTVSRTSSTTVTLQVTSLTVADTATYFCARDSVGSPLMSFDLWGPGTLVTVSS
VL: LVMTQTPASVSAAVGGTVIINCQASQNLYNNNELSWYQQKPGQPPKLLIYWASTLASGVPSRFKGSGSGTQFTLTISGVQCADAATYYCAGYKSYSNGGNGFGGGTEVVVK
notes: also called 307H/302L
Regarding B6, the binding result in test [8] is given as “binds”.

B7: heavy chain of EBV321 paired with light chain of EBV307 (antibody, V domains shown)
VH: QSLEESGGDLVKPGASLTLSCTASGFSFSNNDVMCWVRQAPGKGLEWIGCIMTTDVVTEYANWAKSRFTVSKTSSSTVTLQLTSLTVADTATYFCARDSVGSPLMSFDLWGPGTLVTVSS
VL: LVMTQTPASVSAAVGGTVTINCQASQSVYGNNELSWYQQKPGQRPKLLIYRASTLASGVPSRFSGSGSGTQFTLTISGVQCFDAATYYCSGYKSYYNDGSGFGGGTEVVVK
On to B7, for which the binding result in test [8] is “binds”.

B8: heavy chain of EBV307 paired with light chain of EBV321 (antibody, V domains shown)
VH: QSVEESGGGLVKPGGTLTLTCTVSGFSFSNNDVMCWVRQAPGKGLEWIGCIMTTDVVTAYANWAKSRFTVSRTSSTTVTLQVTSLTVADTATYFCARDSVGSPLMSFDLWGPGTLVTVSS
VL: LVMTQTPASVSAAVGGTVTINCQASQSVYGNNELSWYQQKPGQPPKLLIYRASTLASGVPSRFSGSGSGTQFTLTISGVQCADAATYYCGGYKSYSNDGNGFGGGTEVVVK
notes: also called 307H/321L
B8: the binding result in test [8] is “binds”.

B9: anti-VEGF RabMAb EBV307 (antibody, V domains shown)
VH: QSVEESGGGLVKPGGTLTLTCTVSGFSFSNNDVMCWVRQAPGKGLEWIGCIMTTDVVTAYANWAKSRFTVSRTSSTTVTLQVTSLTVADTATYFCARDSVGSPLMSFDLWGPGTLVTVSS
VL: LVMTQTPASVSAAVGGTVTINCQASQSVYGNNELSWYQQKPGQRPKLLIYRASTLASGVPSRFSGSGSGTQFTLTISGVQCFDAATYYCSGYKSYYNDGSGFGGGTEVVVK
notes: also called 307H/307L; source: 293-6E cells, L and H chain plasmids co-transfected, purified (protein A)
Regarding B9, the IC50 in test [7] worked out at 2.62 nM.

B10: heavy chain of EBV321 paired with light chain of EBV320 (antibody, V domains shown)
VH: QSLEESGGDLVKPGASLTLSCTASGFSFSNNDVMCWVRQAPGKGLEWIGCIMTTDVVTEYANWAKSRFTVSKTSSSTVTLQLTSLTVADTATYFCARDSVGSPLMSFDLWGPGTLVTVSS
VL: LVMTQTPASVSAAVGGTVTINCQASQNLYNNNELSWYQQKPGQPPKLLIYWASTLASGVPSRFKGSGSGTQFTLTISGVQCADAATYYCAGYKSYSNDGNGFGGGTEVVVK
Turning to B10, the binding result in test [8] is reported as “binds”.

B11: anti-VEGF RabMAb EBV320 (antibody, V domains shown)
VH: QSLEESGGDLVKPGASLTLTCTASGFSFSNNAVMCWVRQAPGKGLEWIGCIMTTDVVTEYANWAKSRFTVSKTSSTTVTLQMTSLTVADTATYFCARDSVGSPLMSFDLWGPGTLVTVSS
VL: LVMTQTPASVSAAVGGTVTINCQASQNLYNNNELSWYQQKPGQPPKLLIYWASTLASGVPSRFKGSGSGTQFTLTISGVQCADAATYYCAGYKSYSNDGNGFGGGTEVVVK
notes: also called 320H/320L; source: 293-6E cells, L and H chain plasmids co-transfected, purified (protein A)
With B11, in test [7], the IC50 was found to be 3.32 nM.

B12: heavy chain of EBV307 paired with light chain of EBV320 (antibody, V domains shown)
VH: QSVEESGGGLVKPGGTLTLTCTVSGFSFSNNDVMCWVRQAPGKGLEWIGCIMTTDVVTAYANWAKSRFTVSRTSSTTVTLQVTSLTVADTATYFCARDSVGSPLMSFDLWGPGTLVTVSS
VL: LVMTQTPASVSAAVGGTVTINCQASQNLYNNNELSWYQQKPGQPPKLLIYWASTLASGVPSRFKGSGSGTQFTLTISGVQCADAATYYCAGYKSYSNDGNGFGGGTEVVVK
notes: also called 307H/320L
With B12, the binding result in test [8] is “binds”.

B13: heavy chain of EBV302 paired with light chain of EBV321 (antibody, V domains shown)
VH: QSLEESGGDLVKPGASLTLTCTASGFSFSNNAVMCWVRQAPGKGLEWIGCIMTTDVVTEYANWAKSRFTVSKTSSTTVTLQMTSLTVADTATYFCARDSVGSPLMSFDLWGPGTLVTVSS
VL: LVMTQTPASVSAAVGGTVTINCQASQSVYGNNELSWYQQKPGQPPKLLIYRASTLASGVPSRFSGSGSGTQFTLTISGVQCADAATYYCGGYKSYSNDGNGFGGGTEVVVK
notes: also called 302H/321L
As to B13, the binding result in test [8] is reported as “binds”.

B14: anti-VEGF RabMAb EBV302 (antibody, V domains shown)
VH: QSLEESGGDLVKPGASLTLTCTASGFSFSNNAVMCWVRQAPGKGLEWIGCIMTTDVVTEYANWAKSRFTVSKTSSTTVTLQMTSLTVADTATYFCARDSVGSPLMSFDLWGPGTLVTVSS
VL: LVMTQTPASVSAAVGGTVIINCQASQNLYNNNELSWYQQKPGQPPKLLIYWASTLASGVPSRFKGSGSGTQFTLTISGVQCADAATYYCAGYKSYSNGGNGFGGGTEVVVK
notes: also called 302H/302L; source: 293-6E cells, L and H chain plasmids co-transfected, purified (protein A)
Turning to B14, in test [7], the IC50 amounted to 25.2 nM.

B15: heavy chain of EBV320 paired with light chain of EBV321 (antibody, V domains shown)
VH: QSLEESGGDLVKPGASLTLTCTASGFSFSNNAVMCWVRQAPGKGLEWIGCIMTTDVVTEYANWAKSRFTVSKTSSTTVTLQMTSLTVADTATYFCARDSVGSPLMSFDLWGPGTLVTVSS
VL: LVMTQTPASVSAAVGGTVTINCQASQSVYGNNELSWYQQKPGQPPKLLIYRASTLASGVPSRFSGSGSGTQFTLTISGVQCADAATYYCGGYKSYSNDGNGFGGGTEVVVK
notes: also called 320H/321L
As for B15, in test [8], the binding result is reported as “binds”.

The values are drawn from publication PMC2816707, “A Humanized Anti-VEGF Rabbit Monoclonal Antibody Inhibits Angiogenesis and Blocks Tumor Growth in Xenograft Models” (PLoS ONE, 2010).
